Reference: the nanobody polyreactivity screen of Harvey et al. (2022)

Experiment: yeast display, Sf9 membrane polyspecificity reagent, FACS + sequencing; frameworks hold sequencing errors
In short: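 Genes from sorted yeast were amplified by colony PCR, read by MiSeq 2 × 250 sequencing and filtered on CDR length. These cells carried a synthetic nanobody library in Saccharomyces cerevisiae BJ5465 and were sorted by FACS into low and high (top ~1%) gates on anti-HA and streptavidin fluorescence. Polyreactivity is labelled according to the gate of origin.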

Row | Sequence | polyreactivity (PSR sort gate)
1 | QVQLVESGGGLVQAGGSLRLSCPASGSTFYYYAMGWYRQAPGKERELVASISDDGSTNYADSVKGRFTISRDNAKNTVYLQMNSLKPEDTAVYYCAAVWWHQFGSAWYQMGYWGQGTQVTVSS | low polyreactivity
2 | QVQLVESGGGLVQAGGSLRLSCAASGSTFNTNAMGWYRQAPGKERELVAAITWRTGSTYYADSVKGRFTISRDNAKNTVYLQMNSLKPEDTAVYYCAADYFWYRSGRYHYWGQVTQVTVSS | high polyreactivity
3 | QVQLVESGGGLVQAGGSLRLSCAASGRILLHYAMGWYRQAPGKERELVAAITSTGGTTYYADSVKGRFTISRDYAKNTFYLQMNSLKPEDTAVYYCAAKRQDSWGGTYGYWGQGTQVTVSS | low polyreactivity
4 | QVQLVESGGGLVQAGGSLRLSCAASGSTFWWYAMGWYRQAPGKERELVATIRDGGSTNYADSVKGRFTISRDNAKNTVYLQMNSLKPEDTAVYYCNADVYPYYRKPWMDYWGQGTQVTVSS | low polyreactivity
5 | QVQLVESGGGLVQAGGSLRLSCAASGSIFGSYVMGWYRQAPGKERELVAAISKSGGRTYYADSVKGRFTISRDNAKNTVYLQMKSLKPEDTAVYYCAVLPRVKDGTGGDYWGHGTQVTVSS | high polyreactivity
6 | QVQLVESGGGLVQAGGSLRLSCAASGRTLRSNAMGWYRQAPGKERELVAAISSNGGSTYYADSVKGRFTISRDNAKNTVYLQMNSLKPEDTAVYYCAALSYYYSDRMDYWGQGTQVSVSS | low polyreactivity
7 | QVQLVESGGGLVKAGGSLRLRGAASGSIFGRYAMGWYRQAPGKERELVAAISKNGGSTYYADSVKGRFTISRDNAKNTVYLQMNILKPEDTAVYYCNTVRYSGNYRDQEGDYWGQGTQVTVSS | high polyreactivity
8 | QVQLVESGGGLVQAGGSLRLSCAASGSIFVINPMGWYRPAPGKERELVATIRARAGSTYYADSVKGRFTISRDNAKNSVYLQMNSLKPEDTAVYYCAARLKSYRVDYWGQGTQVTVSS | high polyreactivity
9 | QVQLVESGGGLVQAGGSLRLSCAASGRIFEPYAMGWYRKAPGKERELLAAITSGGSTDYADSVKGRFTISRDNAKNTVYLQMNSLKPEDTAVYYCATRWGYAVSFDFYFLLSGVDYWGQGTQVTVSS | low polyreactivity
10 | QVQLVESGGGLVQAGGSLRLSCAASGSIFKYYAMGWYRQAPGKERELVAAISVRGSRTYYADSVKGRFTISRDNAKNTVYLQMNSLKPEDTAVYYCAADGGYIPPYGYDYWGQGTQVTVSS | high polyreactivity
11 | QVQLVESGGGLVQAGGSLRLSCAASGFIFVDYDMGWYSQAPGKERELVAAINWSGGSTDYADSVKGRFTISRDNAKNTVYLQMNSLKPEDTAVYYCAAEGQDGRFYWGQGTQVTVSS | low polyreactivity
12 | QVQLVESGGGLVQAGGSLRLSCAASGFTCTRYAMGWYRQAPGKERELVATITGGGRTNYADSVKGRFTISRDNAKNTVYLQMNSLKPEDTADYYCNAKYRVYWGSGKFDYWGQGSQVTVSS | high polyreactivity
13 | QVQLVESGGGLVQAGGSLRLSCAASGRTFPYYAMGWYRQAPGKERELVAAITWSGGSTYYADSVKGRFTISRDNAKNTVYLQMNSLKPEDTAVYYCAKDYSRWGWNMGYWGQGTQVTVSS | high polyreactivity
14 | QVQLVESGGGLVQAGGSLRISCAASGSTFSDYDMVWYRQAPGKERELVAAISKRGGSTDYADSVKGRFTFSRDNAKITVYLQMNSLKPEDTAVYYCAKDGTHGYDYWGQGTQVTVSS | low polyreactivity
15 | QVQLVESAGGLVQAGGSLRLSCAASGLTFTTYAMGWYRQAPGKERELVAAISRRGSRTYYADSVKGRFTISRDNAKNTVYLQMNSLKPEDTAVYYCNALTGSFKTYSFDYWGQGTQVTVSS | high polyreactivity
16 | QVQLVESGGGLVQAGGSLRLSCAASGIIFGYNAMGWYRQAPGKERELVAAISTSGGSTYYADSVKGRFTISRDNAKNTVYLQMNSLKPEDTAVYYCAAGYRRTYGFNYWGQGTQVTVSS | low polyreactivity
17 | QVQQQESGGGLVQAGGSLRLSCAASGTIFQLTVMGRYRQAPGKERELVASIDYGGNTNYADSVKGRFTISRDNAKKTVYLQKYIVKPEDTAVYYCAAYSDSWTTHPYWGQVTQVTVSS | low polyreactivity
18 | QVQLVESGGALVQAGGSLRLSCAASGSTLRANAMGWYRQAPGKERELVARITSGGSTYYADSVKGRFTISRDNAKNTVYFQMNSLKPEDTAVYYCAATYKLAYRRGYWGQGTQVTVSS | high polyreactivity
19 | QVQLVESGGGLVQAGGSLRLSCAASGRILYDYDMGWYRQAPGKERELVATISRGGGTNYADSVKGRFTISRDNAKNNVYLQMNSLKPEDTAVYYCAAYYSSDGDYWGQGTQVTVSS | low polyreactivity
20 | QVQLVESGGGLVQAGGSLRLSCAASGFTFGTYDMGWYRQAPGKERELVAAIDWGGGSTYYADSVKGRFTISRDNAKNTFYLQMNSLKTEDTAFYYCAADGPGDYLTLEWYWFTYYYWGQGTQVTVTS | high polyreactivity
21 | QVQLVESGGGLVQAGGSLRLSCAASGRTFYYYAMGWYRQAPGKERELVAAINTRGTSTYYADSVKGRFTISRDNAKNTVYLQMNSLKPEDTAVYYCAVDPYGDSWEDWFRNYYYGYDYWGQGTQVTVSS | low polyreactivity
22 | QVQLVESGGGLVQAGGSLRLSCAASGRTFKPYAMGWYRPAPGKDRELVAAISTRGGSTYFADSVKGRFTISRDNAKNTVYLQMNSLKPEDTAVYYCAATQPVRDYDYWGQGTQVTVSS | low polyreactivity

Row | Sequence | polyreactivity (PSR sort gate)
23 | QVQLVESGGGLVQAGGSLRLSCAASGRIFVFNAMGWYRQAPGKERELVAAISRRGGSTYYADSVKGRFTISRDNAKNTVYLQMNSLKPEVTAVYYCAAVYPDYSSARYDYWGQGTQVTVSS | high polyreactivity
24 | QVQLVESGGGLVQAGGSHRLSCAASGRIFSDYAMGWYRQAPGKERELVAAITRDGSTNYADSVKGLFTISRDNAKNTVYLQLNSLKPEDTAVYYCAAEGRRGGKDYDYWGQGTQVTVSS | high polyreactivity
25 | QVQLVESGGGLVQAGGSLRLSCAASGFIFRSYVMGWYRQSPGKERELVAAISKSGGSTYYADSVKGRFTISRDNAKTTVYLQMNSLKPEDTAVYYCAAGTTRTGYRTRYDYWGQGTQVTVSS | high polyreactivity
26 | QVQLVESGGGLVQAGGSLRLSCAASGSTFGSYAMGWYRQAPGKVRELVASIRSSGTSTYYADSVKGRFTISRDNAKNTVYLQMNSLKPEDTAVYYCAKRYFTWRSTYNYWGQGTQVTVSS | high polyreactivity
27 | QVQLVESGGGLVQAGGSLRLSCAASGRIFRYYAMGWYRQAPGKERELVAAITQRGGSTYADSVKGRFTISRDNANNTVYLQMNSLKPEDTAVFYCAYRGSFLYDYWGQGTQVTVSS | low polyreactivity
28 | QVQLVESGGGLVQAGGSLRLSCAASGIIFNKYAMGWYRQAPGKEREFVAAITYRGGSTYYADSVKGRFTISRDNAKNTVYLQMNSLKPEDTAVYYCAARRITTYYYWGQGTQVTVSS | high polyreactivity
29 | QVQLVESGGGLVQAGGSLRLSCAASGIIFSYYTMGWYRQAPGKERELVAAISARGGRTYYADSVKGRFTISRDNAKNTVYLQMNSLKPEDTAVYYCAASWSTEYYWGQGTQVTVSS | high polyreactivity
30 | QVQLVESGGGLVQSGGSLRLSCAASGYIFFFNAMGWYRQAPGKERELVAAITRRGVSTYYADSVKGRCTISRDNAKNTVFLQMNSLKPEDTAVYYCATEHNHLGYYYWGQGTQVTVSS | low polyreactivity
31 | QVQLVESVGGLVQAGGSLRLSCAASGRTFVLNTMGWYRQAPGKERELVAAISKSGGSTYYADSVKGRFTISRDNAKNTVYLQMNSLKPEDTAVYYCAARTRQLEYNSWGEGTQVTVSS | high polyreactivity
32 | QVQLVESGGGLVQAGGSLRLSCAASGRIYVYYVLGWYRQAPGKERELVAAITYSGGSTYYADSVKGRFTISRDNAKNTVYLQMNSLKPEDTAVYYCNKVDAFGIVRLYYWGQGTQVTVSS | low polyreactivity
33 | QVHLVESGGGLVQAGGSLRLSLAASGSIFHPYAMGWYRQAPGKERELVAAISKSGGNTYYADSVKGRFTISRDNAKNNVYLQMNSLKPVDPEVYYCAALDYWGQGTKVTVSS | low polyreactivity
34 | QVQLVESGGGLVQAGGSLRLSCAASGRIFTTYAMGWYRQAPGKEREFVAAINYSGGRTYYAESVKGRFTISRDNAKNTVYLQMISLKPEETAVYYCAARSLFRGDYWGQGTQVTVSS | high polyreactivity
35 | QVQLVESGGGLVQAGGSLRLSCAASGSIFEGNAMGWSRQAPGKERELVAAITGRGGSTYYADSVKGRFTISRDNAKNTVYLQMNSLKPEDTAVYYCAARVRRLSSIIYYYWGQGTQVTVSS | high polyreactivity
36 | QVQLVESGGGLVQAGGSLRLSCAASGSTFIYYAMGWYRQAPGKERELVAAITSAGRTNYADSVKGRFTISRDNAKNTVYLQMNSLKPEDTAVYYCAAAYRPRKHHYDYWGQGTQVTVSS | high polyreactivity
37 | QVQLVESGGGLVQAGGSLRLSCAASGSIFKYYAMGWYRQAPGTERELVAAISTGGTTNYADSVKGRFTISRDNAKNTVYLQMNSLKPEDTAVYYCNRDYLVRSRYKYYYWGQGTQVTVSS | low polyreactivity
38 | QVQLVESGGRLVQAGGSLRLSCAASGRIFSIYGMGWYRPAPGKERELVAVISGSVGITYYADSVKGRFTISRDNAKNTVYLQMNSLKPEDTAVYYCNAKVRRRKYDYWGQGTQVTVSS | high polyreactivity
39 | QVQLVESGGGLVQAGGSLRLSCAASGSTFGYNAMGWYRQAPGKERELVAAITWSGGSTYYADSVKGRFTISRDNAKNTVYLQMNSLKPEDTAAYYCAADDWYNSKWHYYYWGQGTQVTVSS | low polyreactivity
40 | QVQLVESGGGLVQAGGSLRLSCAASGITFDYNAMGWYRQAPGKERELVADISASGDSTYYADSVKGRFTISRDNAKNTVYLQMNSLKPEDTAVYYCNTAYWYSWGYDYWGQGTQVTVSS | low polyreactivity
41 | QVQLVESGGGLVQAGCSLRLSSAASGIIFSHNAMGWYRQAPGKERELVDDIDWSGGSTYYADSVKGRFTISRDNAKNTVYLQMNSLKPEDTAVYYCAAEYRDYVPVNDTGDYWGQGTQVTVSS | low polyreactivity
42 | QVQLVESGGGLVQAGGSLRLTCAASGIIFRGYAMGWYRQPPGKERELVAGITSGVRTYYADSVKGRFTISRDNAKNTVYLQMTSLKPEDTAVYYSNADAYGDDWKIYDYWGQGTQVTVSS | low polyreactivity
43 | QVQLVESGGGLVQAGGSLRLSCAPSGRIFHYNAMGWYRQAPGKERELVAAIDYGGSSTYYADSVKGRFTISRDNAKNTVYLEMNSLKPEDTAVYYCWGQATQVTVSS | low polyreactivity
